Measured values as given in US7045537B1, “Protein structures and protein fibres” (The University of Sussex, priority 1999, dated 2006).
“And” between values parts separate entries of the source, which are not always exact repeats. Identical values can stand only once.

T1: SAF-p2A
T1 sequence (peptide): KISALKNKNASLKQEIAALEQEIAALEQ

T2: SAF-p2C
T2 construct: Designed peptide, uncapped ends
T2 peptide: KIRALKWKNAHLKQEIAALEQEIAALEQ

T3: SAF-p2B (CH3CO at the N terminus and NH2 at the C terminus)
T3 peptide: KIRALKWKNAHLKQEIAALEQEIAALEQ

T4: SAF-p2D
T4 construct: also called Self-Assembling Fibre peptide 2
T4 peptide: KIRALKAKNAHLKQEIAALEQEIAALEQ


Legend:
SAF-p2A [1] = biological target: T1, SAF-p2A; assay: circular dichroism of the peptide mixture, 100 µM
SAF-p2C [2] = biological target: T2, SAF-p2C; assay: circular dichroism of the peptide mixture, 10 µM
Description: (§1) Peptide samples were incubated at 5° C. in 10 mM MOPS (3-(N-Morpholino)propanesulfonic acid), pH 7. Sample concentrations were determined from their UV absorbance at 280 nm (SAF-p1) and 214 nm (SAF-p2). After baseline correction, ellipticities in mdeg were converted to molar ellipticities (deg cm^2 dmol-res^-1) by normalizing for the concentration of peptide bonds. Data were recorded in a cell of 1 mm path length by integrating the signal for 5s (and 1s for the fresh 100 µM peptide mixture) every nm in the range 205–260 nm. CD measurements were made using a JASCO J-715 spectropolarimeter fitted with a Peltier temperature controller.

SAF-p2A [3] = biological target: T1, SAF-p2A; assay: thermal melt by circular dichroism of the peptide mixture, 100 µM
SAF-p2B [4] = biological target: T3, SAF-p2B; assay: circular dichroism of the peptide mixture, 100 µM
Description: as §1

SAF-p2C [5] = biological target: T2, SAF-p2C; assay: circular dichroism of the peptide mixture, 100 µM
Description: as §1

SAF-p2A [6] = biological target: T1, SAF-p2A; assay: circular dichroism of the peptide mixture, 10 µM
SAF-p2B [7] = biological target: T3, SAF-p2B; assay: thermal melt by circular dichroism of the peptide mixture, 100 µM (expect 38° C. if no interaction)
SAF-p2D [8] = biological target: T4, SAF-p2D; assay: circular dichroism of the peptide mixture, 10 µM
Description: as §1

SAF-p2D [9] = biological target: T4, SAF-p2D; assay: circular dichroism of the peptide mixture, 100 µM
Description: as §1

SAF-p2B [10] = biological target: T3, SAF-p2B; assay: thermal melt by circular dichroism of the peptide mixture, 100 µM (expect 36° C. if no interaction)
SAF-p2B [11] = biological target: T3, SAF-p2B; assay: circular dichroism of the peptide mixture, 10 µM
Description: as §1

SAF-p2B [12] = biological target: T3, SAF-p2B; assay: thermal melt by circular dichroism of the peptide mixture, 10 µM (expect 19° C. if no interaction)

Binder	% α-helix of the mixture (CD) (SAF-p2A [1]) [%]	% α-helix of the mixture (CD) (SAF-p2C [2]) [%]	Tm of the mixture (CD) (SAF-p2A [3]) [° C.]	% α-helix of the mixture (CD) (SAF-p2B [4]) [%]	% α-helix of the mixture (CD) (SAF-p2C [5]) [%]	% α-helix of the mixture (CD) (SAF-p2A [6]) [%]	Tm of the mixture (CD) (SAF-p2B [7])	% α-helix of the mixture (CD) (SAF-p2D [8]) [%]	% α-helix of the mixture (CD) (SAF-p2D [9]) [%]	Tm of the mixture (CD) (SAF-p2B [10]) [° C.]	% α-helix of the mixture (CD) (SAF-p2B [11]) [%]	Tm of the mixture (CD) (SAF-p2B [12]) [° C.]
KIAALKQKIAALKQEIDALEYENDALEQ (Prototype designed peptide, uncapped ends) [SAF-p1A]	40	~20	30	~65	~80	20	~36 ° C. and ~46 ° C.					
KIAALKQKIASLKQEIDALEYENDALEQ (also called Self-Assembling Fibre peptide 1) [SAF-p1C]		~25			~65			~25	~85			
Ac-KIAALKQKIAALKQEIDALEYENDALEQ-NH2 (Chemically capped form of SAF-p1A) [SAF-p1B]				~80						~35	~70	~25
